Measurements published in the supplement of paper PMC12042874.
± gives the uncertainty stated by the source.

Assay: amyloid nucleation score (Sup35N fusion, yeast selection) (log enrichment); library NNK1; higher = more nucleation; inactive = no reads after selection
Method in brief: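 Growth for 7 days at 30°C on medium lacking adenine and uracil followed a 24-hour induction with 100 μM copper sulfate of psi-negative yeast expressing peptides of 20 random codons fused to Sup35N. Input and output plasmid inserts were sequenced with Illumina, and sequences with under 100 input reads were excluded. Nucleation score is the DiMSum log enrichment of output over input reads, centred on the mode score of non-aggregating sequences.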

| Substance | amyloid nucleation score |
| --- | --- |
| IECVS | -0.251 ± 0.68 |
| IEGDFEFGVNVSRAARDMRV | -0.856 ± 0.94 |
| IENPVLRCSLYYPSRPIRRL | -0.344 ± 0.58 |
| IESEGSWRIHWK | 0.638 ± 0.39 |
| IETSKFRPINVKLVIYCCHG | 0.499 ± 0.79 |
| IEYFCWFAILGKPFESGIGS | 0.991 ± 0.51 |
| IFFYRYYNSHASSGERQNGR | 0.175 ± 0.56 |
| IFNSATSTCNSRYIYIK | 4.26 ± 0.074 |
| IFSGSPGLN | 5.71 ± 0.076 |
| IFSIGW | 0.816 ± 0.45 |
| IFTAVSSVAFLSLINVLSLL | 2.75 ± 0.21 |
| IFTVTGNCTGGAHTQDVVWF | 0.381 ± 0.77 |
| IFYFYFCRYLSIQMVILGVQ | 0.983 ± 0.33 |
| IGCSCNPYGTFWG | 5.93 ± 0.066 |
| IGFPRLTSEDS | 0.755 ± 0.4 |
| IGFRPGRNSVWLMSRDLNFW | -1.11 ± 1.4 |
| IGIFIGRLCCYIFGEVMR | 1.16 ± 0.16 |
| IGITRILFVFFIDTATIKNG | -0.855 ± 0.43 |
| IGMALKWNFLCKSSDRFLRV | 0.296 ± 0.97 |
| IGMRCWTACSSKRFESCRRV | 0.743 ± 0.44 |
| IGSRIKA | 1.04 ± 0.19 |
| IGSSHRNSLVCVVEDENIQI | 1.01 ± 0.5 |
| IGTYGHRMELLIGSRCKSRT | -0.15 ± 0.22 |
| IGVKTYYTLFIGSMYFNSKG | 3.22 ± 0.097 |

| Substance | amyloid nucleation score |
| --- | --- |
| IGYEGYPYASYGCRLLEQDA | 0.168 ± 0.32 |
| IGYITHITYSVLVL | 0.371 ± 0.3 |
| IGYRYQSMLGCEGGRWWWVV | 0.45 ± 0.58 |
| IHCDIALNRSTWLYFPFVLA | inactive |
| IHTVTLNNHSSNGDCSSFNI | -0.453 ± 0.43 |
| IHVSENDMELVWLYGVVRI | -0.708 ± 0.9 |
| IIAKNTDKVSCTVRVSFL | -0.894 ± 1.4 |
| IICKVCLCVAPM | 2.81 ± 0.19 |
| IIDPDREYTVSN | -0.236 ± 0.95 |
| IIFELKGLPLKNGMRGLKPL | -0.579 ± 0.34 |
| IIGTPVPYLGVLKTFDIKYF | 0.125 ± 0.36 |
| IIIPFLSNSCEFMWL | 4.81 ± 0.076 |
| IIISMFRGAGRIYSF | 0.336 ± 0.64 |
| IIITFLCNYFQGWNCLLVHF | 2.35 ± 0.1 |
| IIKFSNDWDVDKFSFGSVLE | 0.596 ± 0.63 |
| IINMMLSHRDNWLFYMSFVG | -0.308 ± 0.42 |
| IIQSSTGLWFIIRKVDATYV | 0.812 ± 0.28 |
| IKCHYFDVCLNVWSLCYLAC | 1.24 ± 0.46 |
| IKDRFLEALCVKCGLSYTQG | -0.035 ± 0.26 |
| IKKEIRSVFGLSGTSVKGNN | -0.118 ± 0.74 |
| IKRKG | 0.326 ± 0.46 |
| IKRLFWDWLGDRDLGRMSTP | inactive |
| IKSEAWICCTSLYMNQGDRS | 8.507 ± 0.065 |
| IKSVMDWSSCTEL | -0.144 ± 0.33 |

| Substance | amyloid nucleation score |
| --- | --- |
| IKVAN | 1.1 ± 0.47 |
| IKVLSYISWCGGFEKRCVGG | 1.05 ± 0.46 |
| ILCICY | 2.48 ± 0.2 |
| ILDHT | 0.267 ± 0.33 |
| ILGAI | 1.66 ± 0.58 |
| ILHYWVAVSMAQWICIGLKK | 0.194 ± 0.45 |
| ILIEETFLS | inactive |
| ILMFISVFYCFCRKTRYLNR | 1.01 ± 0.31 |
| ILSFSSRPVVDNHSTTW | 0.682 ± 0.51 |
| ILSIYVSDAYKSMSETN | 1.14 ± 0.42 |
| ILSNTRSVFYSSN | -0.089 ± 0.38 |
| ILSSFILVANCWILFHPLFW | -0.411 ± 0.52 |
| ILSSGGEKDFNSLYT | -0.105 ± 0.47 |
| ILTLIMAL | 0.013 ± 0.33 |
| ILVLRGCIKLR | inactive |
| ILVPLNQGEIWRNKIRYWI | 0.019 ± 0.4 |
| IMCISFVFFNLKGYGGTG | 3.11 ± 0.082 |
| IMEMG | 0.11 ± 0.53 |
| IMGHIKM | -0.366 ± 0.44 |
| IMMHSGPRKVPGSFGQTVHD | 0.019 ± 0.68 |
| IMNLSRNRVGLRVYGI | -0.029 ± 0.41 |
| IMVVFGITCVPASGNFLQGW | inactive |
| IMYWITGTIMCY | 0.037 ± 0.16 |
